Sequences and labels used below:
B1: Cyanovirin-N, P81180 (parent)
chain: LGKFSQTCYNSAIQGSVLTSTCERTNGGYNTSSIDLNSVIENVDGSLKWQPSNFIETCRNTQLAGSSELAAECKTRAQQFVSTKINLDDHIANIDGTLKYE

Variants of B1 are the subject of the series. Conditions: Nostoc ellipsosporum, pH 6, sodium phosphate 20 mM, transition: 2, reversible: yes(90%), structure 1IIY, whole UniProt chain shown; for denaturant m value / denaturant midpoint (higher = more stable): 25 °C, GdnHCl; for Tm / change of melting temperature, mutant - wild type (higher = more stable): Thermal.

A word on the Tm: it is the temperature at which the thermal transition is half complete. For LGKFSQTCYNSAIQGSVLTSTCERTNGGYNTSSIDLNSVIENVDGSLKWQGSNFIETCRNTQLAGSSELAAECKTRAQQFVSTKINLDDHIANIDGTLKYE [P51G], for the setting “CD”, the denaturant m value worked out at 2.5 kcal/mol/M; the “denaturant midpoint (higher = more stable)” value (“denaturant midpoint” below) turned out to be 2.2 M; the Tm stood at 64.3 °C; the “change of melting temperature, mutant - wild type (higher = more stable)” value (“change of melting temperature, mutant” for short) was -2.3 °C. Also, where the note is “fluorescence”, the denaturant m value amounted to 2.6 kcal/mol/M and the “denaturant midpoint” value amounted to 2.3 M.

Turning to LGKFSQTCYNAAIQGSVLTATCERTNGGYNTSSIDLNSVIENVDGSLKWQGSNFIETCRNTQLAGSSELAAECKTRAQQFVSTKINLDDHIANIDGTLKYE [P51G S11A S20A], for the setting “CD”, the denaturant m value stood at 2.4 kcal/mol/M; the “denaturant midpoint” value amounted to 2.5 M; the Tm was determined as 69.6 °C; the “change of melting temperature, mutant” value stood at 3 °C.

For the variant LGKFSQTCYNIAIQGSVLTATCERTNGGYNTSSIDLNSVIENVDGSLKWQGSNFIETCRNTQLAGSSELAAECKTRAQQFVSTKINLDDHIANIDGTLKYE [P51G S11I S20A], where the note is “CD”, the denaturant m value amounted to 2 kcal/mol/M and the “denaturant midpoint” value stood at 3.1 M.

As for LGKFSQTCYNVAIQGSVLTATCERTNGGYNTSSIDLNSVIENVDGSLKWQGSNFIETCRNVQLAGSSELAAECKTRAQQFVSTKINLDDHIANIDGTLKYE [P51G S11V S20A T61V], under “CD”, the denaturant m value was determined as 1.7 kcal/mol/M; the “denaturant midpoint” value was found to be 2.9 M; the Tm came out at 74.5 °C; the “change of melting temperature, mutant” value came to 7.9 °C. Moreover, for the setting “fluorescence”, the denaturant m value was 2.1 kcal/mol/M and the “denaturant midpoint” value came out at 3 M.

Turning to LGKFSQTCYNVAIQGSVLTATCERTNGGYNTSSIDLNSVIENVDGSLKWQGSNFIETCRNTQLAGSSELAAECKTRAQQFVSTKINLDDHIANIDGTLKYE [P51G S11V S20A], under “CD”, the denaturant m value stood at 2.6 kcal/mol/M; the “denaturant midpoint” value was 2.8 M; the Tm is 69.8 °C; the “change of melting temperature, mutant” value came to 3.2 °C. Also, for the setting “fluorescence”, the denaturant m value was 2.6 kcal/mol/M and the “denaturant midpoint” value is 2.8 M.

In the case of LGKFSQTCYNAAIQGSVLTATCERTNGGYNTSSIDLNSVIENVDGSLKWQGSNFIETCRNIQLAGSSELAAECKTRAQQFVSTKINLDDHIANIDGTLKYE [P51G S11A S20A T61I], for the setting “CD”, the denaturant m value amounted to 1.7 kcal/mol/M; the “denaturant midpoint” value turned out to be 3.3 M; the Tm is 75.8 °C; the “change of melting temperature, mutant” value amounted to 9.2 °C. For the setting “fluorescence”, the denaturant m value came to 2.1 kcal/mol/M and the “denaturant midpoint” value came out at 3.5 M.

The values above are taken from FireProtDB (doi:10.1021/bi201411c).
